Test [1] addresses HLA-A*02:01. Nature of the test: IEDB peptide-MHC binding, purified MHC/competitive/fluorescence; filed as Kd, often an IC50 or EC50 that approximates it; ≥ and ≤ were set here for values at or beyond the usual limits of such assays.
Another test deals with HLA-A*02:19. The test is described as above.
Test [2] has as its target HLA-A*02:01. The experiment in a line: IEDB peptide-MHC binding, purified MHC/competitive/fluorescence; ≥ and ≤ were set here for values at or beyond the usual limits of such assays.
The target of test [3] is HLA-A*11:01. Described as above.
For test [4], the target named is HLA-A*03:01. The description is as above.
The target of the next test is HLA-B*57:01. The experiment in a line: IEDB peptide-MHC binding, purified MHC/direct/fluorescence; filed as Kd, often an IC50 or EC50 that approximates it; ≥ and ≤ were set here for values at or beyond the usual limits of such assays.
The target in the next test is HLA-B*15:17. The test is described as above. The settings on record: source organism: West Nile virus.
Test [5] has as its target HLA-A*01:01. The experiment in a line: IEDB peptide-MHC binding, purified MHC/competitive/fluorescence; filed as Kd, often an IC50 or EC50 that approximates it; ≥ and ≤ were set here for values at or beyond the usual limits of such assays. The settings on record: source organism: Influenza A virus (A/equine/California/8560/2002(H3N8)).
A further test has as its target HLA-A*33:01. Nature of the test: IEDB peptide-MHC binding, purified MHC/competitive/radioactivity; filed as Kd, often an IC50 or EC50 that approximates it; ≥ and ≤ were set here for values at or beyond the usual limits of such assays.
Test [6] concerns the target HLA-B*44:02. Described as above. The note with it: source organism: Hepatitis C virus (isolate 1).
For another test, the target named is HLA-B*54:01. Described as above. The note with it: source organism: Hepatitis C virus (isolate 1).
Test [7] addresses HLA-A*02:01. Described as above. The note with it: source organism: Hepatitis C virus (isolate 1).
A further test deals with HLA-B*40:02. The test is described as above. The note with it: source organism: Hepatitis C virus (isolate 1).
The next test has as its target HLA-A*02:02. Described as above. The settings on record: source organism: Hepatitis C virus (isolate 1).
Test [8] addresses HLA-A*11:01. The description is as above. The settings on record: source organism: Hepatitis C virus (isolate 1).
The target in test [9] is HLA-A*01:01. The test is described as above. The settings on record: source organism: Hepatitis C virus (isolate 1).
For test [10], the target named is HLA-B*40:01. The test is described as above. The note with it: source organism: Hepatitis C virus (isolate 1).
A further test has as its target HLA-A*02:03. The description is as above. The note with it: source organism: Hepatitis C virus (isolate 1).
For test [11], the target named is HLA-A*31:01. The test is described as above.
In another test the target is HLA-A*68:02. The test is described as above. The settings on record: source organism: Hepatitis C virus (isolate 1).
Test [12] has as its target HLA-A*03:01. The test is described as above. The note with it: source organism: Hepatitis C virus (isolate 1).
The next test concerns the target HLA-B*44:03. Described as above. The settings on record: source organism: Hepatitis C virus (isolate 1).
A further test has as its target HLA-B*53:01. The test is described as above. The note with it: source organism: Hepatitis C virus (isolate 1).
Test [13] deals with HLA-B*08:01. Described as above. The settings on record: source organism: Hepatitis C virus (isolate 1).
The next test deals with HLA-A*02:06. The description is as above. The settings on record: source organism: Hepatitis C virus (isolate 1).
In another test the target is HLA-A*68:01. The description is as above.
Another test deals with HLA-A*24:02. The experiment in a line: IEDB peptide-MHC binding, purified MHC/competitive/fluorescence; ≥ and ≤ were set here for values at or beyond the usual limits of such assays. The note with it: source organism: Zaire ebolavirus.
The target in test [14] is HLA-B*44:02. The experiment in a line: IEDB peptide-MHC binding, purified MHC/direct/fluorescence; filed as Kd, often an IC50 or EC50 that approximates it; ≥ and ≤ were set here for values at or beyond the usual limits of such assays. The settings on record: source organism: Mycobacterium tuberculosis C.
A further test concerns the target HLA-B*58:01. The test is described as above. The note with it: source organism: Mycobacterium tuberculosis C.
The target in test [15] is HLA-A*11:01. The test is described as above. The note with it: source organism: Mycobacterium tuberculosis C.
In test [16] the target is HLA-A*01:01. The description is as above. The note with it: source organism: Mycobacterium tuberculosis C.
The target in the next test is HLA-B*07:02. The test is described as above. The settings on record: source organism: Mycobacterium tuberculosis C.
Another test has as its target HLA-B*18:01. The description is as above. The settings on record: source organism: Mycobacterium tuberculosis C.
Test [17] has as its target HLA-B*40:01. The test is described as above. The settings on record: source organism: Mycobacterium tuberculosis C.
The target of test [18] is HLA-A*31:01. The test is described as above. The settings on record: source organism: Mycobacterium tuberculosis C.
Test [19] has as its target HLA-A*03:01. The description is as above. The settings on record: source organism: Mycobacterium tuberculosis C.
The target of another test is HLA-B*48:01. The description is as above.
Test [20] deals with HLA-B*08:01. The test is described as above. The note with it: source organism: Mycobacterium tuberculosis C.
The target in another test is HLA-B*15:01. Described as above. The note with it: source organism: Mycobacterium tuberculosis C.
Another test concerns the target HLA-B*46:01. Described as above. The note with it: source organism: Mycobacterium tuberculosis C.
In another test the target is HLA-B*51:01. The experiment in a line: IEDB peptide-MHC binding, purified MHC/competitive/fluorescence; filed as Kd, often an IC50 or EC50 that approximates it; ≥ and ≤ were set here for values at or beyond the usual limits of such assays. The note with it: source organism: Mycobacterium tuberculosis C.
Setting [21] is: source organism: Bacillus anthracis str. A0488.
Where [22] appears, read: source organism: Zaire ebolavirus.
[23] abbreviates: source organism: Hepatitis C virus (isolate 1).
The mark [24] stands for this setting: source organism: Vaccinia virus Copenhagen.
Setting [25] is: source organism: Vaccinia virus.
[26] abbreviates: source organism: Burkholderia vietnamiensis G4.
Where [27] appears, read: source organism: Sudan ebolavirus.
Setting [28] is: source organism: Vaccinia virus WR.
Setting [29] is: source organism: Mycobacterium tuberculosis C.

What is called Kd is the free concentration of one partner at which half of the binding sites on the other are occupied at equilibrium, for simple one-to-one binding. In the case of DMNLEQWSV, the figures for the Kd with HLA-A*02:01 [1] (setting [21]) and in the test with HLA-A*02:19 (setting [21]) were no less than 20 µM and 0.0117 µM, respectively.

As usually defined, the IC50 is the point on the concentration scale where inhibition reaches its midpoint. Turning to QIIHDFVDK, the results for the IC50 with HLA-A*02:01 [2] (setting [22]), with HLA-A*11:01 [3] (setting [22]) and with HLA-A*03:01 [4] (setting [22]) were no less than 262 µM, 6.34 µM and no less than 97.5 µM, respectively.

As for ISGKSTDMW, the Kd was 0.891 µM in the test with HLA-B*57:01 (source organism: West Nile virus) and 0.123 µM in the test with HLA-B*15:17.

On to VLYYHMMKD, for which the IC50 with HLA-A*02:01 [2] (setting [22]) stood at 48.1 µM; with HLA-A*11:01 [3] (setting [22]), 12.6 µM; in the test with HLA-A*03:01 [4] (setting [22]), 26 µM.

Regarding MTIASVPTSRY, the Kd in the test with HLA-A*01:01 [5] is 2.04 µM.

HPNIEEVAL: the Kd with HLA-A*33:01 (setting [23]) is no less than 77.7 µM; in the test with HLA-B*44:02 [6], no less than 78 µM; with HLA-B*54:01, 4.57 µM; with HLA-A*02:01 [7] it was no less than 70.5 µM; with HLA-B*40:02, no less than 77.3 µM; with HLA-A*02:02 it was 4 µM. The Kd was no less than 77.9 µM with HLA-A*11:01 [8]; 16 µM with HLA-A*01:01 [9]; no less than 76.2 µM with HLA-B*40:01 [10]; 17.2 µM in the test with HLA-A*02:03; no less than 77.9 µM in the test with HLA-A*31:01 [11] (setting [23]); no less than 69.8 µM with HLA-A*68:02. Besides, the Kd was no less than 78 µM with HLA-A*03:01 [12]; no less than 48.2 µM in the test with HLA-B*44:03; 0.163 µM with HLA-B*53:01; no less than 36 µM in the test with HLA-B*08:01 [13]; no less than 67.3 µM with HLA-A*02:06; no less than 57.9 µM with HLA-A*68:01 (setting [23]).

In the case of LRTFSILNR, the half-inhibitory concentration (IC50) is no less than 248 µM with HLA-A*02:01 [2] (setting [22]), 33.1 µM in the test with HLA-A*11:01 [3] (setting [22]) and no less than 111 µM with HLA-A*03:01 [4] (setting [22]).

For ANCSSISIK, the figures for the IC50 in the test with HLA-A*11:01 [3] (setting [24]) and with HLA-A*03:01 [4] (setting [24]) were 2.78 µM and 42.4 µM, respectively.

LEYKTLCDM: the IC50 was 44.8 µM in the test with HLA-A*11:01 [3] (setting [25]) and no less than 289 µM in the test with HLA-A*03:01 [4] (setting [25]).

Regarding WFMTWQPNI, the dissociation constant Kd in the test with HLA-A*02:01 [1] (setting [26]) was 0.54 µM; with HLA-A*02:19 (setting [26]), 0.0528 µM.

For NRSTKGGQQ, the IC50 is no less than 140 µM with HLA-A*11:01 [3] (setting [22]) and no less than 286 µM in the test with HLA-A*03:01 [4] (setting [22]).

As for LGLRKRSRR, the IC50 turned out to be 65.8 µM with HLA-A*11:01 [3] (setting [27]) and 6.72 µM in the test with HLA-A*03:01 [4] (setting [27]).

Turning to TNAMVTLRK, the IC50 with HLA-A*02:01 [2] (setting [22]) was no less than 1090 µM; with HLA-A*11:01 [3] (setting [22]) it was 0.311 µM; with HLA-A*03:01 [4] (setting [22]), 6.42 µM; with HLA-A*24:02, no less than 188 µM.

HIPGDTLFK: the results for the 50% inhibitory concentration (IC50) with HLA-A*11:01 [3] (source organism: Variola virus) and in the test with HLA-A*03:01 [4] (source organism: Variola virus) were 0.735 µM and 6.64 µM, respectively.

Consider LSVETITEK, for which the dissociation constant (Kd) with HLA-A*33:01 (setting [28]) was 1.52 µM; with HLA-A*31:01 [11] (setting [28]), 2.92 µM; with HLA-A*68:01 (setting [28]), 0.261 µM. Further, the results for the half-maximal inhibitory concentration (IC50) in the test with HLA-A*02:01 [2] (setting [24]), in the test with HLA-A*11:01 [3] (setting [24]) and with HLA-A*03:01 [4] (setting [24]) were no less than 134 µM, 6.6 µM and no less than 101 µM, respectively.

On to KILMNFHQK, for which the half-inhibitory concentration (IC50) with HLA-A*02:01 [2] (setting [22]) is no less than 95.4 µM; with HLA-A*11:01 [3] (setting [22]), 0.441 µM; with HLA-A*03:01 [4] (setting [22]), 3.35 µM; with HLA-A*24:02, 50.3 µM.

For the sequence TPKIRFWHV, the dissociation constant Kd with HLA-B*44:02 [14], in the test with HLA-B*58:01, with HLA-A*11:01 [15], with HLA-A*01:01 [16], in the test with HLA-B*07:02 and with HLA-B*57:01 (setting [29]) was no less than 20 µM each time. Also, the Kd with HLA-B*18:01 is no less than 20 µM; with HLA-B*40:01 [17] it was no less than 20 µM; with HLA-A*31:01 [18], no less than 20 µM; with HLA-A*03:01 [19] it was no less than 20 µM; with HLA-B*48:01 (setting [29]), no less than 20 µM; with HLA-B*08:01 [20] it was 0.0915 µM. In addition, the dissociation constant Kd with HLA-B*15:01, in the test with HLA-B*46:01 and with HLA-B*51:01 was no less than 20 µM in each case.

EQGKQHAWL registered a dissociation constant (Kd) with HLA-B*48:01 (source organism: Burkholderia mallei ATCC 23344) of no less than 20 µM.

The values above are taken from the Immune Epitope Database (IEDB).
